Target: FL-N nucleocapsid protein (SARS-CoV-2, UniProt P0DTC9 1-419)
Assay: sedimentation velocity AUC
Settings: protein: commercial; chain copies: 2; single strand

B1: T10 (ssDNA)
DNA: TTTTTTTTTT
  binding result: binds

— PMC10075959
